# Test results: publication PMC6826200
# B1: wild-type FICD (amino acid residues 104-445) [human] / itself (parent)
# chain: LEARAALNQALEMKRQGKREKAQKLFMHALKMDPDFVDALTEFGIFSEEDKDIIQADYLYTRALTISPYHEKALVNRDRTLPLVEEIDQRYFSIIDSKVKKVMSIPKGNSALRRVMEETYYHHIYHTVAIEGNTLTLSEIRHILETRYAVPGKSLEEQNEVIGMHAAMKYINTTLVSRIGSVTISDVLEIHRRVLGYVDPVEAGRFRTTQVLVGHHIPPHPQDVEKQMQEFVQWLNSEEAMNLHPVEFAALAHYKLVYIHPFIDGNGRTSRLLMNLILMQAGYPPITIRKEQRSDYYHVLEAANEGDVRPFIRFIAKCTETTLDTLLFATTEYSVALPEAQP
# Variants of: B1
# Assay: size-exclusion chromatography (peak elution time vs protein concentration, monomer-dimer association fit)
# Settings: with itself; non-oxidised protein; parent: 55 nM
row,Variant,Kd
1,chain 1 A149C C318S,831 nM
